Test results: patent US20210324028A1 (Pfizer, published 2021)

T1: human IL-2Rβ (human, UniProt P14784 27-240, limits assumed)
T1 construct: also called hIL-2Rβ; IL-2 receptor beta
T1 sequence (looked up): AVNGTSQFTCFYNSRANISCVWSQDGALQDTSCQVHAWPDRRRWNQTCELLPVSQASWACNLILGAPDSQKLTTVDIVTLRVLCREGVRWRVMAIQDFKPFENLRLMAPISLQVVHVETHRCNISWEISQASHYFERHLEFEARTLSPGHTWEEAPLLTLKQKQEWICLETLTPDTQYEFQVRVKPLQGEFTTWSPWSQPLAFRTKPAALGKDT


What was measured:
human IL-15Rα = biological target: T2, human IL-15Rα (human, UniProt Q13261 31-205, limits assumed); test: SPR 37C, fusion captured by anti-human Fc
T2 construct: also called hIL-15Rα; IL-15 receptor alpha
T2 sequence (Q13261 31-205 limits assumed): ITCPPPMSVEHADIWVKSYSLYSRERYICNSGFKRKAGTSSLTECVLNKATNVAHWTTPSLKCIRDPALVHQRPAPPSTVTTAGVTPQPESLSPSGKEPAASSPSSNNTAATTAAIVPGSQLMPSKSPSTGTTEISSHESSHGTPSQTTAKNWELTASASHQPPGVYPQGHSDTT
Procedure: (§1) Anti-human Fc sensor chips were prepared at 25° C. with a running buffer of 10 mM HEPES, 150 mM NaCl, 0.05% (v/v) Tween-20, pH 7.4. All surfaces of a Biacore CM4 sensor chip were activated with a 1:1 (v/v) mixture of 400 mM EDC and 100 mM NHS for 7 minutes, at a flow rate of 10 μL/min. An anti-human Fc reagent (Goat anti-human IgG Fc-γ specific, SouthernBiotech, Birmingham, Ala., Catalog #2014-01) was diluted to 50 μg/mL in 10 mM sodium acetate (pH 4.5) and injected on all flow cells for 7 minutes at 20 μL/min. All flow cells were blocked with 100 mM ethylenediamine in 200 mM Borate buffer pH 8.5 for 7 minutes at 10 μL/min.
(§2) All protein interaction experiments were performed at 37° C. using a running buffer of 10 mM HEPES, 150 mM NaCl, 0.05% (v/v) Tween-20, pH 7.4, 1 mg/mL BSA. Anti-PD-1-hIL-15 fusion proteins were captured at 10 μg/mL at a flow rate of 10 μL/min for 2 minutes. Different fusion proteins were captured in flow cells 2, 3 and 4. No protein was captured onto flow cell 1 which was used as a reference surface. […] After each analyte injection, dissociation was monitored for 5 minutes followed by regeneration of all flow cells with three 60-second injections of 75 mM phosphoric acid. […] For kinetic analysis, the double-referenced sensorgrams were fit globally to a simple 1:1 Langmuir with mass transport binding model using Biacore T200 Evaluation Software version 2.0. For steady-state affinity analysis, the double-referenced equilibrium binding responses were fit with a 1:1 Langmuir steady-state model using Biacore T200 Evaluation Software version 2.0.

human IL-2Rβ = biological target: T1, human IL-2Rβ; test: SPR 37C, fusion captured by anti-human Fc
Procedure: as §1, §2

Binder	binding result (human IL-15Rα)	binding result (human IL-2Rβ)
xmPD-1-hIL15 V49R/E46G/E64Q/D30N/N4K (other, not restated for this mutant; also called xmPD1-hIL15_V49R-E46G-N4K-E64Q-D30N) heavy 1: HHHHHHHHGGGGSGSGGEVQLVESGGGLVKPGGSLELSCAASGFTFSSYWMSWVRQAPEKGLEWVAAISPSGGSTYYADSVKGRFTISRDNAKNTLFLQMTSLRSEDTAMYYCAKESWGAYYDLWGQGTTVTVSSASTKGPSVFPLAPCSRSTSESTAALGCLVKDYFPEPVTVSWNSGALTSGVHTFPAVLQSSGLYSLSSVVTVPSSNFGTQTYTCNVDHKPSNTKVDKTVERKCRVRCPRCPAPPVAGPSVFLFPPKPKDTLMISRTPEVTCVVVAVSHEDPEVQFNWYVDGVEVHNAKTKPREEQFNSTFRVVSVLTVVHQDWLNGKEYKCKVSNKGLPSSIEKTISKTKGQPREPQVYTLPPSREEMTKNQVSLTCLVKGFYPSDIAVEWESNGQPENNYKTTPPMLDSDGSFFLYSRLTVDKSRWQQGNVFSCSVMHEALHNHYTQKSLSLSPGK heavy 2: EVQLVESGGGLVKPGGSLELSCAASGFTFSSYWMSWVRQAPEKGLEWVAAISPSGGSTYYADSVKGRFTISRDNAKNTLFLQMTSLRSEDTAMYYCAKESWGAYYDLWGQGTTVTVSSASTKGPSVFPLAPCSRSTSESTAALGCLVKDYFPEPVTVSWNSGALTSGVHTFPAVLQSSGLYSLSSVVTVPSSNFGTQTYTCNVDHKPSNTKVDKTVERKCEVECPECPAPPVAGPSVFLFPPKPKDTLMISRTPEVTCVVVAVSHEDPEVQFNWYVDGVEVHNAKTKPREEQFNSTFRVVSVLTVVHQDWLNGKEYKCKVSNKGLPSSIEKTISKTKGQPREPQVYTLPPSREEMTKNQVSLTCEVKGFYPSDIAVEWESNGQPENNYKTTPPMLDSDGSFFLYSKLTVDKSRWQQGNVFSCSVMHEALHNHYTQKSLSLSPGSGGGGGTSATATPGANWVKVISDLKKIEDLIQSMHIDATLYTESNVHPSCKVTAMKCFLLGLQRISLESGDASIHDTVQNLIILANNSLSSNGNVTESGCKECEELEEKNIKEFLQSFVHIVQMFINT light: DIVMTQSPSSLSVSAGDKVTMSCRASQGISSWLAWYQQKPWQPPKLLIYKASTLESGVPDRFTGSGSGTDFTLTISSVQAEDLAVYYCQQSYSTPWTFGGGTKLEIKGTVAAPSVFIFPPSDEQLKSGTASVVCLLNNFYPREAKVQWKVDNALQSGNSQESVTEQDSKDSTYSLSSTLTLSKADYEKHKVYACEVTHQGLSSPVTKSFNRGEC	no binding (tested: 3000 nM)	no binding (tested: 3000 nM)
xmPD-1-hIL15 V49R/E46G/E64Q/D30N/I68S/M109A (other, not restated for this mutant; also called xmPD1-hIL15_V49R-E46G-E64Q-I68S-D30N-M109A) heavy 1: HHHHHHHHGGGGSGSGGEVQLVESGGGLVKPGGSLELSCAASGFTFSSYWMSWVRQAPEKGLEWVAAISPSGGSTYYADSVKGRFTISRDNAKNTLFLQMTSLRSEDTAMYYCAKESWGAYYDLWGQGTTVTVSSASTKGPSVFPLAPCSRSTSESTAALGCLVKDYFPEPVTVSWNSGALTSGVHTFPAVLQSSGLYSLSSVVTVPSSNFGTQTYTCNVDHKPSNTKVDKTVERKCRVRCPRCPAPPVAGPSVFLFPPKPKDTLMISRTPEVTCVVVAVSHEDPEVQFNWYVDGVEVHNAKTKPREEQFNSTFRVVSVLTVVHQDWLNGKEYKCKVSNKGLPSSIEKTISKTKGQPREPQVYTLPPSREEMTKNQVSLTCLVKGFYPSDIAVEWESNGQPENNYKTTPPMLDSDGSFFLYSRLTVDKSRWQQGNVFSCSVMHEALHNHYTQKSLSLSPGK heavy 2: EVQLVESGGGLVKPGGSLELSCAASGFTFSSYWMSWVRQAPEKGLEWVAAISPSGGSTYYADSVKGRFTISRDNAKNTLFLQMTSLRSEDTAMYYCAKESWGAYYDLWGQGTTVTVSSASTKGPSVFPLAPCSRSTSESTAALGCLVKDYFPEPVTVSWNSGALTSGVHTFPAVLQSSGLYSLSSVVTVPSSNFGTQTYTCNVDHKPSNTKVDKTVERKCEVECPECPAPPVAGPSVFLFPPKPKDTLMISRTPEVTCVVVAVSHEDPEVQFNWYVDGVEVHNAKTKPREEQFNSTFRVVSVLTVVHQDWLNGKEYKCKVSNKGLPSSIEKTISKTKGQPREPQVYTLPPSREEMTKNQVSLTCEVKGFYPSDIAVEWESNGQPENNYKTTPPMLDSDGSFFLYSKLTVDKSRWQQGNVFSCSVMHEALHNHYTQKSLSLSPGSGGGGGTSATATPGANWVNVISDLKKIEDLIQSMHIDATLYTESNVHPSCKVTAMKCFLLGLQRISLESGDASIHDTVQNLISLANNSLSSNGNVTESGCKECEELEEKNIKEFLQSFVHIVQAFINT light: DIVMTQSPSSLSVSAGDKVTMSCRASQGISSWLAWYQQKPWQPPKLLIYKASTLESGVPDRFTGSGSGTDFTLTISSVQAEDLAVYYCQQSYSTPWTFGGGTKLEIKGTVAAPSVFIFPPSDEQLKSGTASVVCLLNNFYPREAKVQWKVDNALQSGNSQESVTEQDSKDSTYSLSSTLTLSKADYEKHKVYACEVTHQGLSSPVTKSFNRGEC	no binding (tested: 3000 nM)	no binding (tested: 3000 nM)

Second part, the binder after the results:

binding result (human IL-15Rα)	binding result (human IL-2Rβ)	Binder
no binding (tested: 3000 nM)	no binding (tested: 3000 nM)	xmPD-1-hIL15 V49R/E46G/E64Q/D30N/I68S (other, not restated for this mutant; also called xmPD1-hIL15_V49R-E46G-E64Q-I68S-D30N) heavy 1: HHHHHHHHGGGGSGSGGEVQLVESGGGLVKPGGSLELSCAASGFTFSSYWMSWVRQAPEKGLEWVAAISPSGGSTYYADSVKGRFTISRDNAKNTLFLQMTSLRSEDTAMYYCAKESWGAYYDLWGQGTTVTVSSASTKGPSVFPLAPCSRSTSESTAALGCLVKDYFPEPVTVSWNSGALTSGVHTFPAVLQSSGLYSLSSVVTVPSSNFGTQTYTCNVDHKPSNTKVDKTVERKCRVRCPRCPAPPVAGPSVFLFPPKPKDTLMISRTPEVTCVVVAVSHEDPEVQFNWYVDGVEVHNAKTKPREEQFNSTFRVVSVLTVVHQDWLNGKEYKCKVSNKGLPSSIEKTISKTKGQPREPQVYTLPPSREEMTKNQVSLTCLVKGFYPSDIAVEWESNGQPENNYKTTPPMLDSDGSFFLYSRLTVDKSRWQQGNVFSCSVMHEALHNHYTQKSLSLSPGK heavy 2: EVQLVESGGGLVKPGGSLELSCAASGFTFSSYWMSWVRQAPEKGLEWVAAISPSGGSTYYADSVKGRFTISRDNAKNTLFLQMTSLRSEDTAMYYCAKESWGAYYDLWGQGTTVTVSSASTKGPSVFPLAPCSRSTSESTAALGCLVKDYFPEPVTVSWNSGALTSGVHTFPAVLQSSGLYSLSSVVTVPSSNFGTQTYTCNVDHKPSNTKVDKTVERKCEVECPECPAPPVAGPSVFLFPPKPKDTLMISRTPEVTCVVVAVSHEDPEVQFNWYVDGVEVHNAKTKPREEQFNSTFRVVSVLTVVHQDWLNGKEYKCKVSNKGLPSSIEKTISKTKGQPREPQVYTLPPSREEMTKNQVSLTCEVKGFYPSDIAVEWESNGQPENNYKTTPPMLDSDGSFFLYSKLTVDKSRWQQGNVFSCSVMHEALHNHYTQKSLSLSPGSGGGGGTSATATPGANWVNVISDLKKIEDLIQSMHIDATLYTESNVHPSCKVTAMKCFLLGLQRISLESGDASIHDTVQNLISLANNSLSSNGNVTESGCKECEELEEKNIKEFLQSFVHIVQMFINT light: DIVMTQSPSSLSVSAGDKVTMSCRASQGISSWLAWYQQKPWQPPKLLIYKASTLESGVPDRFTGSGSGTDFTLTISSVQAEDLAVYYCQQSYSTPWTFGGGTKLEIKGTVAAPSVFIFPPSDEQLKSGTASVVCLLNNFYPREAKVQWKVDNALQSGNSQESVTEQDSKDSTYSLSSTLTLSKADYEKHKVYACEVTHQGLSSPVTKSFNRGEC
no binding (tested: 3000 nM)	no binding (tested: 3000 nM)	xmPD-1-hIL15 V49R/E46G/E64Q/D30N/N4K/M109A (other, not restated for this mutant; also called xmPD1-hIL15_V49R-E46G-E64Q-N4K-D30N-M109A; xmPD-1-hIL15 VS49R/E46G/E64Q/D30N/N4K/M109A) heavy 1: HHHHHHHHGGGGSGSGGEVQLVESGGGLVKPGGSLELSCAASGFTFSSYWMSWVRQAPEKGLEWVAAISPSGGSTYYADSVKGRFTISRDNAKNTLFLQMTSLRSEDTAMYYCAKESWGAYYDLWGQGTTVTVSSASTKGPSVFPLAPCSRSTSESTAALGCLVKDYFPEPVTVSWNSGALTSGVHTFPAVLQSSGLYSLSSVVTVPSSNFGTQTYTCNVDHKPSNTKVDKTVERKCRVRCPRCPAPPVAGPSVFLFPPKPKDTLMISRTPEVTCVVVAVSHEDPEVQFNWYVDGVEVHNAKTKPREEQFNSTFRVVSVLTVVHQDWLNGKEYKCKVSNKGLPSSIEKTISKTKGQPREPQVYTLPPSREEMTKNQVSLTCLVKGFYPSDIAVEWESNGQPENNYKTTPPMLDSDGSFFLYSRLTVDKSRWQQGNVFSCSVMHEALHNHYTQKSLSLSPGK heavy 2: EVQLVESGGGLVKPGGSLELSCAASGFTFSSYWMSWVRQAPEKGLEWVAAISPSGGSTYYADSVKGRFTISRDNAKNTLFLQMTSLRSEDTAMYYCAKESWGAYYDLWGQGTTVTVSSASTKGPSVFPLAPCSRSTSESTAALGCLVKDYFPEPVTVSWNSGALTSGVHTFPAVLQSSGLYSLSSVVTVPSSNFGTQTYTCNVDHKPSNTKVDKTVERKCEVECPECPAPPVAGPSVFLFPPKPKDTLMISRTPEVTCVVVAVSHEDPEVQFNWYVDGVEVHNAKTKPREEQFNSTFRVVSVLTVVHQDWLNGKEYKCKVSNKGLPSSIEKTISKTKGQPREPQVYTLPPSREEMTKNQVSLTCEVKGFYPSDIAVEWESNGQPENNYKTTPPMLDSDGSFFLYSKLTVDKSRWQQGNVFSCSVMHEALHNHYTQKSLSLSPGSGGGGGTSATATPGANWVKVISDLKKIEDLIQSMHIDATLYTESNVHPSCKVTAMKCFLLGLQRISLESGDASIHDTVQNLIILANNSLSSNGNVTESGCKECEELEEKNIKEFLQSFVHIVQAFINT light: DIVMTQSPSSLSVSAGDKVTMSCRASQGISSWLAWYQQKPWQPPKLLIYKASTLESGVPDRFTGSGSGTDFTLTISSVQAEDLAVYYCQQSYSTPWTFGGGTKLEIKGTVAAPSVFIFPPSDEQLKSGTASVVCLLNNFYPREAKVQWKVDNALQSGNSQESVTEQDSKDSTYSLSSTLTLSKADYEKHKVYACEVTHQGLSSPVTKSFNRGEC
